Test results taken from patent US20060057696A1, “Sugar chain synthases” (priority 2002, published 2006).
One block for each molecule: values may come before it.

Columns and labels:
human ST6Gal I = biological target: T1, human ST6Gal I (Homo sapiens, UniProt P15907); assay: Sialyltransferase activity of human ST6Gal I toward acceptor substrates (comparison); format: biochemical; settings: incorporation with Galβ1,4GlcNAc taken as 100; 0.5 mg/ml glycolipids, 1 mg/ml glycoproteins and oligosaccharides
T1 sequence (P15907 1-406): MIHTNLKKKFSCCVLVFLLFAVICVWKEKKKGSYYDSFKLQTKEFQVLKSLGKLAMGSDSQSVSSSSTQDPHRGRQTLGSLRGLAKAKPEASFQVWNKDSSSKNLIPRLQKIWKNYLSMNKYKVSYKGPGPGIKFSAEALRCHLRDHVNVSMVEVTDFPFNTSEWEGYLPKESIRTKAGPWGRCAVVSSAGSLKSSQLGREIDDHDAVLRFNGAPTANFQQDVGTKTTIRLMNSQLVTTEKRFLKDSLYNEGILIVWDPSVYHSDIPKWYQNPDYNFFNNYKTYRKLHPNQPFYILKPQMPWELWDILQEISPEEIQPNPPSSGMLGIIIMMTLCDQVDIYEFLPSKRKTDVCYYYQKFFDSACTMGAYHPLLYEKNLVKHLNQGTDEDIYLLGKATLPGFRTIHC
Method: Using each expression vector and lipofectamine (Invitrogen), transient expression was carried out in COS-7 cells (Kojima, N. et al. (1995) FEBS Lett. 360, 1-4). The proteins of the present invention secreted from the cells into which each expression vector had been introduced were named as PA-hST6Gal II (human) and PA-mST6Gal II (mouse). PA-hST6Gal II and PA-mST6Gal II were adsorbed to IgG-Sepharose (Amersham Pharmacia Biotech), and were then recovered from medium. Sialyltransferase activity was measured as follows according to the method of Lee et al. (Lee, Y.-C. et al. (1999) J Biol. Chem. 274, 11958-11967). A reaction mixture (10 μl) containing 50 mM MES buffer (pH 6.0), 1 mM MgCl2, 1 mM CaCl2, 0.5% Triton CF-54, 100 μM CMP-[^14C]-NeuAc, a substrate sugar chain (which was added at 0.5 mg/ml in the case of glycolipids, and at 1 mg/ml in the case of glycoproteins or oligosaccharides), and a PA-hST6Gal II or PA-mST6Gal II suspension, was incubated at 37° C. for 3 to 20 hours. Thereafter, in the case of glycolipids, the reaction product was purified with a C-18 column (Sep-Pak Vac 100 mg; Waters) and the purified product was used as a sample. In the case of oligosaccharides or glycoproteins, the reaction product was directly used as a sample. Thus, the obtained sample was subjected to analysis. In the case of oligosaccharides or glycolipids, the sample was spotted on a silica gel 60 HPTLC plate (Merck), and it was then developed with a developing solvent consisting of 1-propanol:ammonia water:water=6:1:2.5 (for oligosaccharides), or a developing solvent consisting of chloroform:methanol: 0.02% CaCl2=55:45:10 (for glycolipids). In the case of glycoproteins, analysis was carried out by SDS-polyacrylamide gel electrophoresis. The obtained radioactivities were visualized with a BAS2000 radio image analyzer (Fuji Film) and then quantified.
In contrast, there were no glycolipids, which could be substrates of both the enzymes, as far as the inventors have examined. The activity of human ST6Gal I on oligosaccharides was also examined for comparison. […] (FIG. 10).

[1] = biological target: T2, PA-mST8Sia VI (mouse ST8Sia VI) (Mus musculus, UniProt Q8K4T1); assay: Sialyltransferase activity of PA-mST8Sia VI toward acceptor substrates; format: biochemical; settings: for Relative rate (%) Mouse ST8SiaVI: incorporation with Fetuin taken as 100, substrate 0.5 mg/ml glycolipids, 1 mg/ml glycoproteins, monosaccharides and oligosaccharides
T2 construct: amino acids 26-398 in the case of mouse ST8Sia VI; signal peptide of mouse immunoglobulin IgM (N); made in house; host or cells: COS-7 cells, transient expression of pcDSA-mST8Sia VI; protein recovered from medium on IgG-Sepharose
T2 sequence (Q8K4T1 26-398): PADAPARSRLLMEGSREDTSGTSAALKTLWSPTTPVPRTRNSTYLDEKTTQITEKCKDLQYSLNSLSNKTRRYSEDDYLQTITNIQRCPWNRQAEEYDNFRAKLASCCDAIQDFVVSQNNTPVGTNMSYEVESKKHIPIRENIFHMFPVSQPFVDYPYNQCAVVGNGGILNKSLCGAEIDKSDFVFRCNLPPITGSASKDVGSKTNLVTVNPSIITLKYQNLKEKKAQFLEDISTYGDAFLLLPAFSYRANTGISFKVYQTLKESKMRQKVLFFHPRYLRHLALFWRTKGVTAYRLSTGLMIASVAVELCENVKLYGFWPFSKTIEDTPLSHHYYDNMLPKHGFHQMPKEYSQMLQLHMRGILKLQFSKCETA
In short: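 Protein A-tagged mouse or human enzyme secreted from transiently transfected COS-7 cells, captured on IgG-Sepharose. Reaction at pH 6.0 (MES, MgCl2, CaCl2, Triton CF-54) with 100 μM CMP-[^14C]-NeuAc and acceptor (0.5 mg/ml glycolipids; 1 mg/ml glycoproteins/oligosaccharides), 37 °C for 3–20 h; products resolved by HPTLC or SDS-PAGE and radioactivity quantified.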

Molecule: Asialofetuin: asialo glycoprotein acceptor substrate purchased from Sigma
Relative rate (%) Human ST6Gal I (human ST6Gal I): 95.0% | Relative rate (%) Mouse ST8SiaVI [1]: 0%

Molecule: Asialo- α1-Acid glycoprotein: desialylated α1-acid glycoprotein prepared at 80° C. for 1 hour in 0.02 N HCl
Relative rate (%) Human ST6Gal I (human ST6Gal I): 93.0% | Relative rate (%) Mouse ST8SiaVI [1]: 0%

Molecule: NeuAcα2,3Galβ1,4Glcβ1-Cer [GM3]
Relative rate (%) Human ST6Gal I (human ST6Gal I): 0% | Km [1]: 500 µM | Vmax value [1]: 0.67 pmol/h/ml enzyme solution | activity of PA-mST8Sia VI on the substrate (in words) [1]: showed activity | Relative rate (%) Mouse ST8SiaVI [1]: 13.0%

Molecule: Fetuin: glycoprotein acceptor substrate containing both O-glycans and N-glycans, purchased from Sigma
Relative rate (%) Human ST6Gal I (human ST6Gal I): 13.0% | activity of PA-mST8Sia VI on the substrate (in words) [1]: showed activity | Relative rate (%) Mouse ST8SiaVI [1]: 100%

Molecule: Galβ1,3GalNAcβ1,4(NeuAcα2,3)Galβ1,4Glcβ1-Cer [GM1a]
Relative rate (%) Human ST6Gal I (human ST6Gal I): 0% | Relative rate (%) Mouse ST8SiaVI [1]: 0%

B2: Asialoovomucoid: desialylated ovomucoid prepared at 80° C. for 1 hour in 0.02 N HCl (protein, UniProt P01005 25-210, looked up)
Ovomucoid: AEVDCSRFPNATDKEGKDVLVCNKDLRPICGTDGVTYTNDCLLCAYSIEFGTNISKEHDGECKETVPMNCSSYANTTSEDGKVMVLCNRAFNPVCGTDGVTYDNECLLCAHKVEQGASVDKRHDGGCRKELAAVSVDCSEYPKPDCTAEDRPLCGSDNKTYGNKCNFCNAVVESNGTLTLSHFGKC
modifications: desialylated
notes: desialylated ovomucoid prepared at 80° C. for 1 hour in 0.02 N HCl
Relative rate (%) Human ST6Gal I (human ST6Gal I): 12.7% | Relative rate (%) Mouse ST8SiaVI [1]: 0%

Other lines, results leading:

Relative rate (%) Human ST6Gal I (human ST6Gal I): 37.1% | Relative rate (%) Mouse ST8SiaVI [1]: 0%
Molecule: α1-Acid glycoprotein: glycoprotein acceptor substrate purchased from Sigma

Relative rate (%) Human ST6Gal I (human ST6Gal I): 0% | Relative rate (%) Mouse ST8SiaVI [1]: 0%
Molecule: Galβ1,4Glcβ1-Cer [Lactosylceramide]

Relative rate (%) Human ST6Gal I (human ST6Gal I): 9.0% | activity of PA-mST8Sia VI on the substrate (in words) [1]: showed activity | Relative rate (%) Mouse ST8SiaVI [1]: 6.2%
B1: Ovomucoid: glycoprotein acceptor substrate which contains only N-glycans (protein, UniProt P01005 25-210, looked up)
Ovomucoid: B2 Ovomucoid
